Assay results taken from patent US20240075137A1.
pKd: −log10 of the molar value. One block for each substance: values may come before it.

Assays:
[1] = molecular target: human TIGIT on cells (human) (UniProt Q495A1); assay: FACS blocking: Expi293 human TIGIT cells pre-incubated with mAb, then human PVR-m2aFc; lower gMFI = more blocking
[2] = molecular target: human TIGIT on cells (human) (UniProt Q495A1); assay: FACS, Expi293 human TIGIT over-expressing cells
[3] = molecular target: human TIGIT on cells (human) (UniProt Q495A1); assay: FACS titration on Expi293 human TIGIT over-expressing cells (gMFI OE:Parental); ± 95% CI; 'Fit: Fair/Good'
[4] = molecular target: mPVRL2 HIS (mouse) (UniProt P32507); assay: ELISA: soluble receptor Fc titrated on immobilized mPVRL2 HIS
Chain of mPVRL2 HIS (mouse) (P32507 32-351 limits assumed): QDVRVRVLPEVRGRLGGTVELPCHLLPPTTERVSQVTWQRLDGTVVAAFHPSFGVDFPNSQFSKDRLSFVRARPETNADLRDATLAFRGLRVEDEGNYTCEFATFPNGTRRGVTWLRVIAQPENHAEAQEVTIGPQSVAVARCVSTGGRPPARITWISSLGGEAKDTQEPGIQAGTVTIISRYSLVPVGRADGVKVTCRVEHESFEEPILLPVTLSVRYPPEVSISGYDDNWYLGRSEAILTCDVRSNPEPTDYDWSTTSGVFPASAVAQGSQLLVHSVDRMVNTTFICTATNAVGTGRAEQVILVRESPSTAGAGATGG

[5] = molecular target: mPVR (recombinant protein) (mouse); assay: SPR/ELISA with recombinant proteins
[6] = molecular target: mPVRL2 HIS (mouse) (UniProt P32507); assay: ELISA: mPVRIG-mFc titrated on mPVRL2

Chain of human TIGIT on cells (human) (Q495A1 22-141): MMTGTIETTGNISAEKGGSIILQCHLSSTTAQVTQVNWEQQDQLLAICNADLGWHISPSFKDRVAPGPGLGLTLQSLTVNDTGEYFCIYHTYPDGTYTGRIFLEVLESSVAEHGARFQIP

- gMFI of bound PVR-m2aFc at 266 pM mAb [1]: 959
- gMFI of bound PVR-m2aFc at 1.3 nM mAb [1]: 964
- gMFI of bound PVR-m2aFc at 6.7 nM mAb [1]: 828
Substance: Synagis hIgG4 (antibody)

- EC90 [2]: 158 nM
- pKd [3]: 8.07
Substance: human PVR-m2aFc (Compugen) (from UniProt P15151 21-343) (Fc fusion)

- EC50 (read off the curve) [4]: 2 nM
- fold lower affinity than the interaction with mPVRL2 [5]: 10 fold
- EC50 (read off the curve) [6]: 2 nM
Substance: mouse PVRIG-Fc fusion protein
